# Assay results taken from US20240262869A1.
# Where two headings read alike, the source gives them in different places.
# Legend:
# [1] = biological target: neutralizing antibody CR3022
# [2] = biological target: neutralizing antibody CR3022; remark: listed apart in the source
# [3] = biological target: neutralizing antibody CR3022; remark: listed apart in the source
substance,measurement,setting,value
mInCV02R (SARS CoV-2 RBD N-1) having EIS at the N-terminal (from UniProt P0DTC2 332-532) (ligand),Kd,[1],15.9 nM
same,Kd,[2],< 1 nM
same,Kd,[3],16.5 nM
